Columns and labels:
DND-41 = assay: ADC cell viability assay (CellTiter-Glo, four days); type: cell-based; conditions: DND-41 (T cell leukemia), CCR7 receptor levels 1,700
Protocol: (§1) Cytotoxic effects after binding of directly conjugated antibodies (ADCs) with various payloads and their internalization into CCR7(+) cells were studied by assessing cell viability after four days of treatment. Three fold dilutions of the ADCs were added to 384-well bottom white plates in triplicates ([…]). […] Cells were harvested (adherent cells were detached with Accutase) and resuspended to approximately 2×10^4 cells/ml. Cells were added to 384-well plates on top of the antibody (20 μl/well). The plates were incubated for four days at 37° C. and 5% CO2. Subsequently, 20 µl/well of CellTiter-Glo solution (CellTiter-Glo® Luminescent Cell Viability Assay; Promega, #G7571) was prepared and added to the cells. Cell viability was determined by the luminescence signal, which was measured after 10 min of incubation at 22° C. and 400 rpm with the Envision reader. IC50 values were calculated using the Graphpad Prism software.
(§2) To assess the ADCs for target-specificity and receptor-level dependency, ADC activity was tested across cell lines with different CCR7 receptor levels. […] Cell lines were chosen based on similar sensitivity to payload.

NCI-H82 = assay: as above; type: cell-based; conditions: NCI-H82 (Small cell lung cancer), CCR7 receptor levels 0
Protocol: as §1, §2

SR786 = assay: as above; type: cell-based; conditions: SR786, CCR7 receptor levels ~28,000
Protocol: as §1, §2

CML-T1 = assay: as above; type: cell-based; conditions: CML-T1, CCR7 receptor levels ~29,000
Protocol: as §1, §2

KE97 = assay: as above; type: cell-based; conditions: KE97, CCR7 receptor levels ~100,000
Protocol: as §1

DEL = assay: as above; type: cell-based; conditions: CCR7 receptor levels ~100,000
Protocol: as §1

[1] = biological target: T1, human CCR7 (NIH3T3.hCCR7 cells) (Homo sapiens, UniProt P32248); assay: FACS binding to cell surface expressed CCR7
T1 construct: Full length human, cyno and mouse CCR7 genes were synthesized; expressed in transfected cells; host or cells: NIH/3T3 (retroviral transduction)
T1 sequence (P32248 25-378): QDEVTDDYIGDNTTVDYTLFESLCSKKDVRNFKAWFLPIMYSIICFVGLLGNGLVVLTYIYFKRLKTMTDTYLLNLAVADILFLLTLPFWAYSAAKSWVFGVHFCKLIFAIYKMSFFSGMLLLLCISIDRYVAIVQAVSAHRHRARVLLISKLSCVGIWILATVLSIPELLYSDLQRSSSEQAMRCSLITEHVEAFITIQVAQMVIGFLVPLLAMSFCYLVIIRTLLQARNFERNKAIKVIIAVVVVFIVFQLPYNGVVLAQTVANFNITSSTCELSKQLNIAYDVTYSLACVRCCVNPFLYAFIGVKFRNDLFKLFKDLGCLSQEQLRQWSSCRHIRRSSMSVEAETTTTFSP
Protocol: (§3) The affinity of various antibodies and ADCs to CCR7 and its species orthologues was determined using FACS. Purified IgGs were titrated to determine EC50 values for binding to cell surface expressed CCR7.
(§4) For this purpose, CCR7 positive cells were harvested (adherent cells were detached with Accutase), washed twice with FACS buffer (PBS/3% FCS/0.02% sodium azide) and diluted to approximately 2×10^6 cells/ml in FACS buffer. All subsequent steps were done on ice to prevent internalization of the receptor. 100 μl cell suspension/well were transferred into 96-well U-bottom plates (Falcon). 2×10^5 cells/well were incubated with a serial dilution of antibody concentrations of the anti-CCR7 antibody-of-interest ranging across several logs, starting at a high of 100 nM for 60 minutes at 4° C., gently shaking. […] After a final wash, cells were resuspended in 100 μl of FACS buffer containing 0.2 μg/ml DAPI followed by readout on the flow cytometry machine (BD LSRFortessa Cell Analyzer; Cat #647177). Mean fluorescence intensity (MFI) of live, single cells was calculated in Flowjo 10.0.8 and exported into Graphpad Prism6 for EC50 determination.
Selectivity was assessed by measuring apparent binding affinities to isogenic cell pairs engineered to overexpress CCR7 as well as cell lines expressing CCR7 paralogs, e.g., CCR9, CCR6, CXCR4 and CCR8. […]

[2] = tested on: CCR7 and CD20 expressing JVM2 cells; assay: surrogate ADCC reporter assay (Jurkat-V158 effector cells); type: cell-based; conditions: JVM2 target cells and Jurkat-V158 effector cells
Protocol: Capacity of candidate antibodies to mediate ADCC was assessed using a surrogate ADCC reporter assay. CCR7 and CD20 expressing JVM2 cells were used as target cells. JVM2 cells were washed and re-suspended at 8×10^4 cells/ml cells/ml. Effector cells in this assay were a Jurkat cell line stably expressing CD16V158 and an NFAT dependent luciferase reporter (Jurkat-V158); expression of luciferase is a surrogate for canonical ADCC signaling through CD16. Briefly, Jurkat-V158 cells grown in suspension were spun down to remove spent media, the pellet was resuspended in assay media and adjusted to 1.6×10^6 cells/ml cells/mL. Mix equal volumes of effector and target cells to make a master mix of cells yielding a target to effector cell ratio of 1:5 or 1:20. A titration of antibody was diluted in assay media with a final top concentration of 50 ug/mL in the assay well. 12.5 uL of Ab solution was added to a 384 well round bottom plate and then 12.5 ul of the master cell mix was added. Antibody and cells were mixed well by pipetting and incubated for 4 hours at 37° C. in 5% CO2. Following incubation, 15 uL of Bright Glo substrate (Promega #G7572) was added to each well and shaken for 5 min at RT at 1050 rpm. Luminescent signal was read on the Envision plate reader (Perkin Elmer). […]

CXCR4 (HEK293-CXCR4) = biological target: T2, CXCR4 (HEK293-CXCR4) (Homo sapiens, UniProt P61073); assay: FACS binding, selectivity (CCR7 paralogs)
T2 construct: expressed in transfected cells; host or cells: HEK293
Protocol: as §3, §4
(§5) Selectivity was assessed by measuring apparent binding affinities to isogenic cell pairs engineered to overexpress CCR7 as well as cell lines expressing CCR7 paralogs, e.g., CCR9, CCR6, CXCR4 and CCR8.

CCR8 (CHO-CCR8) = biological target: T3, CCR8 (CHO-CCR8) (Homo sapiens, UniProt P51685); assay: FACS binding, selectivity (CCR7 paralogs)
T3 construct: expressed in transfected cells; host or cells: CHO
Protocol: as §3, §4, §5

[3] = tested on: PF382 cells (CCR7−/CCR9+/CCR6+); assay: FACS binding, selectivity
Protocol: as §3, §4, §5

NIH3T3 cells = assay: FACS binding, selectivity
Protocol: as §3, §4, §5

T2 sequence (P61073 whole entry, species assumed): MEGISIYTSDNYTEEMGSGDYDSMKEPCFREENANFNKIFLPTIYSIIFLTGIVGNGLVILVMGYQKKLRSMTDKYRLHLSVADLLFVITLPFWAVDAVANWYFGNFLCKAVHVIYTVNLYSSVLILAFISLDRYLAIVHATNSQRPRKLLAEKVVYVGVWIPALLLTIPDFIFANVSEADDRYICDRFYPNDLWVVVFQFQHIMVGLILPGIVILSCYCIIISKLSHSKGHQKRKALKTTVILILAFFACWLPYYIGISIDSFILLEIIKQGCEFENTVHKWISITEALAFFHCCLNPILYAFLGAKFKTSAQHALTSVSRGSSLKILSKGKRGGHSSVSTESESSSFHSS
T3 sequence (P51685 whole entry, species assumed): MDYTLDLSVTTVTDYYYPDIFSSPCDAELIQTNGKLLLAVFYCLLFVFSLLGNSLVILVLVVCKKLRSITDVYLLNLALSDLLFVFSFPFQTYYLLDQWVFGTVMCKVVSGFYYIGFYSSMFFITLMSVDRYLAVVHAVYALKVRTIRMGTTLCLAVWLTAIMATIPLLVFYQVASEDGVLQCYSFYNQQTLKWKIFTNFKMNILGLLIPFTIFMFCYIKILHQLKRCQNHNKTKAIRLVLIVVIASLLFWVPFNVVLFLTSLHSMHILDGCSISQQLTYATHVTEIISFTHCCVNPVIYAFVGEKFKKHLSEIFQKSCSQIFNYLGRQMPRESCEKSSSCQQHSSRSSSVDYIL

B1: 674J13.CysMab.DAPA.AURIX2 (conjugate)
heavy: DVQLQESGPGLVKPSQTLSLTCTVSGYSITSGYSWHWIRQHPGKGLEWMAHIHSSGSTNYNPSLKSRITISRDTSKNQFSLKLSSVTAADTAVYYCARGGVQAFAYWGQGTLVTVSSASTKGPSVFPLAPSSKSTSGGTAALGCLVKDYFPCPVTVSWNSGALTSGVHTFPAVLQSSGLYSLSSVVTVPSSSLGTQTYICNVNHKPSNTKVDKRVEPKSCDKTHTCPPCPAPELLGGPSVFLFPPKPKDTLMISRTPEVTCVVVAVSHEDPEVKFNWYVDGVEVHNAKTKPREEQYNSTYRVVSVLTVLHQDWLNGKEYKCKVSNKALAAPIEKTISKAKGQPREPQVYTLPPSREEMTKNQVSLTCLVKGFYPCDIAVEWESNGQPENNYKTTPPVLDSDGSFFLYSKLTVDKSRWQQGNVFSCSVMHEALHNHYTQKSLSLSPGK
light: EIVLTQSPATLSASPGERVTMSCSASSSVIYMHWYQQKPGQAPRRWIYDTSKLASGVPARFSGSGSGTDYTLTISSMEPEDAAVYYCQQWSSNPLTFGQGTKLEIKRTVAAPSVFIFPPSDEQLKSGTASVVCLLNNFYPREAKVQWKVDNALQSGNSQESVTEQDSKDSTYSLSSTLTLSKADYEKHKVYACEVTHQGLSSPVTKSFNRGEC
- AMAX, cell viability assay (DND-41): <20% AMAX
- ADC activity in cell viability assay; IC50 (nM) (NCI-H82): No killing
- AMAX, cell viability assay (SR786): 90%
- AMAX, cell viability assay (CML-T1): 60%
- AMAX, cell viability assay (KE97): > 95%
- AMAX, cell viability assay (DEL): > 95%

B2: 121G12 humanized CysMab: humanized anti-CCR7 antibody 121G12, CysMab, Fc wild type (antibody, V domains shown)
VH: EVQLVESGGGLVKPGGSLRLSCAASGFTFSTYAMSWVRQAPGKGLEWVATISDAGSYSYYPDNVKGRFTISRDNAKNSLYLQMNSLRAEDTAVYYCARRGSRYEEYYVMDYWGQGTTVTVSS
VL: EIVLTQSPATLSVSPGERVTLSCRASQSISNNLHWYQQKPGQAPRLLIKYASQSISGIPARFSGSGSGTDFTLTISSVEPEDFGVYFCQQSSSWLTFGQGTKLEIK
- Apparent FACS binding (at 5 ug/ml) [1]: Binding
- ADCC activity; IC50 (nM) [2]: Yes, but insufficient
- Apparent FACS binding (at 5 ug/ml) (CXCR4 (HEK293-CXCR4)): No binding
- Apparent FACS binding (at 5 ug/ml) (CCR8 (CHO-CCR8)): No binding
- Apparent FACS binding (at 5 ug/ml) [3]: No binding
- Apparent FACS binding (at 5 ug/ml) (NIH3T3 cells): No binding
